assay: yeast display, Sf9 membrane polyspecificity reagent, FACS + sequencing; frameworks hold sequencing errors
Method in brief: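 Nanobodies came from a synthetic yeast display library in Saccharomyces cerevisiae BJ5465, induced with galactose for 36–48 hours and stained for 1 hour at 4 °C with 10% biotinylated, detergent-solubilized Sf9 membrane reagent. Cells were enriched on streptavidin microbeads and then FACS-sorted, with low and high (top ~1%) gates set on anti-HA fluorescence for expression and streptavidin fluorescence for reagent binding. Each polyreactivity label reflects the gate a clone came from. Genes were amplified by colony PCR, sequenced by MiSeq 2 × 250 and filtered by CDR length.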

Sequence	polyreactivity (PSR sort gate)
QVQLVESGGGLFQAGGSLRLSCAASGSTFAPYAMGWYRHATGKERELVAAISNSGGSTYYADSVKGRFTISRDDAKNTVYLQMNCLKPEATAVLYCATLKYPYATSQGYDFWGQCTQVTVSS	high polyreactivity
QVQLVESGGGLVQAGGSLRLSCAASGSTFESNAMGWYRQAPGKERELVAAISRGGNTYYADSVKGRFTISRDNAKITVYLQMNSLKPEDTAVYYCNVDRGKPVPPSEYWGQGTQVTVSS	low polyreactivity
QVQLVESVGGLVQAGGSLRISCAASGRIFSGNAMGWYRQAPGKERELVASISRSGGRTRYADSVKGRFTISRDNAKNTVYLQMNSLKPEDTAVYYFTALSTQSYYFTYAGYDYWGQGTQVTVSS	high polyreactivity
QVQLVESGGGLVQAGGSLRLSCAASGTTFRLYAMGWSIQAPGKERELVAAISRSGRTNYADSVKGSFTISRDNAKNTVYLQLNSLKPEDTAVYYCATVPGKCGDYWGQGTQVTVSS	high polyreactivity
QVQLVESGGGLDQAGGSLRLSCASSGIIFWWNTMGGYRQAPGQESEMVAAISTGGSTNYADSVKGRFTISRDNAKNTVYLQMNSLKPEDTAVYYCNADWTDGDWADMDYWGQGTQVTVSS	low polyreactivity
QVQLVESGGGLVQAGGSLRLSCAASGIIFGRYAMGWYRQAPGKERELVAVINWSGDSTYYADSVKGRFTISRDNAKNTVYLQMNSLKPEDTAVYYCAALNYKGRYRQYYWGQGTQVTVSS	high polyreactivity
QVQLVESGGGLVQAGGSLRLSCAASGRSIVGYTMGWYTQAPGKERELVAAITSGGSTYYADSVKGRFTISRDNAKNTVYLQMISLKPEDTAVYYCSAYVRYSTPGKLYQYGYWGQGTQVTVSS	high polyreactivity
QVQHVESGGGLVQAGGRLRLSCAASGSIFGSNAMGWYRQEPGKERELVAVISRRGGSTYYADSVKGRFTISRDNAKNTVYLQMNSLKPEDTAVYYCADRVWYPRYDYWGQGTQVTVSS	high polyreactivity
QVQLVESGGGLVQAGGSLRLSCAASGRIFYYNAKGWYRQAPGKERELVATISRGGSTYYADSVKGRFTISRDNAKNTVDLQMNSLKPEDTAVYYCATRVLYYQSSYDYWGQGTQVTVSS	high polyreactivity
QVQLVESGGGIVQAGGSLRLSCAASGLTFYGYTMGWYRQAPGKERELVAAISWSGGNTYYADSVKGRFTISRDNAKNTVYLQMNSLKPDDTAVYYCAAVYVYLGVYARYPIWGYYYWGQGTQVTVSS	low polyreactivity
QVQLVESGGGLVQAGGSLRLSCAASGRTFDDNAMGWYRQAPGKERELVAAINFTGGSTYYADSVKGRFTISRDNAQNTVSLQMNSLKPEDTAVYYCAVRPGYYCGYWPRFGYWGQGSQVTVSS	low polyreactivity
QVQLVESGGGLVQAGGSLRLSCAASGSIFSRNAMGWYRQAPGKERELVAAITGSGSSTYYADSVKGRFTISRDNAKNTVYLQMNSLKPEDSAVYYCNAARVYLSEWGQGTQVTVSS	high polyreactivity
QVQLVESGGGLVQAGGSLRLSCAASGFIFYPYAMGWYRQAPGKERELVASIYSGGRTYYADSVKGRFTISRDNAKHTVYLQMNSLKPEDTAVYYCNARSRYFGYDYWGQGTQVTVSS	high polyreactivity
QVQLVESGGGLVQAGGNLRLSCAASGRIFSSYAMGWYRQAPGKERELVAAITGTGGTTYYADSVKGRFTISRDNAKYTVYLQMNSLKPEDTAVYYCNAERIYRLSRDSAVQYDYWGQGTQVTVSS	low polyreactivity
QVQLVESGGGLVQAGGSLRLSCAASGSIFDPYAMGWYIQAPGKERELDAAITASGSSTYYADSVKGRFTISRDNAKNTVYLQMNSLKPEDTAVYYCAADRANWEYLLSWLGYDYWGQGTQVTVSS	low polyreactivity
QLQLVESGGGLVQAGGSLRLSCAPSGSTFESYAMGWYRQSPGKERELVAAISSSGGSTYYADSVKGRFTISRENAMNTVYLEMYRLIPEDTAVYYCAAPTFSRYYYWGQGTQVTVSS	high polyreactivity
QVQLGESGGGLVQAGGSLRLSCAASGRTIGYYAMGWYRQAPGKERELVAAISVSGTNTYYADSVKGRFTISRDNAKNTVNLQMNSLKPEDTAVYYCAARKVSGVYRAFYYWGQGTQVTVSS	high polyreactivity

Source: the nanobody polyreactivity screen of Harvey et al. (2022)
